The text below walks through data of PMC3829608 (Molecular cancer therapeutics, 2012).

“Also recorded” adds a separate entry of the source.

Data set [1] concerns U87-MG orthotopic brain tumors. The data set is described as follows: Live animal FMT imaging of orthotopic U87-MG brain tumors. The following applies: representative FMT 3-dimensional reconstruction, matching ROIs, 1 nmol/g. The format is in vivo, mice.
Assay in data set [2]: as above
The format is in vivo, mice. Particulars: mouse, in vivo, iv, 1 nmol/g.

Data set [3] concerns Gli36Δ5 orthotopic brain tumors. In words: Live animal FMT imaging of orthotopic Gli36Δ5 brain tumors. It counts as in vivo, mice. Particulars: representative FMT 3-dimensional reconstruction, matching ROIs, 1 nmol/g.
Assay in data set [4]: as above
The following applies: mouse, in vivo, iv, 1 nmol/g. It counts as in vivo, mice.

Another data set has as its system A431 cells. The data set is described as follows: Uptake in A431 cells with EGF stimulation. It counts as cell-based, human. The following applies: A431 cells in the presence of the EGF ligand.
Data set [5] addresses T1, EGFR (Homo sapiens, UniProt P00533). In words: Saturation binding assay on Gli36Δ5 cells.
Data set [6] concerns the target T1, EGFR. Particulars: radioligand binding assays; cited from earlier work.

As for `CC[C@H](C)[C@H](NC(=O)[C@@H](NC(=O)[C@H](CC(N)=O)NC(=O)[C@H](CCC(N)=O)NC(=O)[C@@H]1CCCN1C(=O)[C@@H](NC(=O)[C@H](Cc1ccc(O)cc1)NC(=O)CNC(=O)[C@H](Cc1ccc(O)cc1)NC(=O)[C@H](Cc1c[nH]c2ccccc12)NC(=O)[C@H](Cc1c[nH]cn1)NC(=O)[C@H](Cc1ccc(O)cc1)NC(=O)COCCOCCNC(=O)CCCCCN1C(=CC=CC=CC2=[N+](CC)c3ccc4c(S(=O)(=O)[O-])cc(S(=O)(=O)O)cc4c3C2(C)C)C(C)(C)c2c1ccc1c(S(=O)(=O)O)cc(S(=O)(=O)O)cc21)[C@@H](C)O)C(C)C)C(N)=O` [Compound 2], the “Amount of fluorescence in ROI, U87-MG” value in data set [1] was 1,608 nmol/L. Moreover, the tissue uptake dose at 1 h was determined as 0.27 %ID in data set [2] and 1.1 %ID in data set [4]. Besides, the “Amount of fluorescence in ROI, Gli36Δ5” value in data set [3] is 9,271 nmol/L. For the same molecule, the “Uptake in A431 cells on stimulation with EGF” value in the data set on A431 cells is listed as “increasing fluorescence; also recorded: increased the level of uptake”.

As for Cy5.5-YHWYGYTPQNVI-amide [Compound 1], the “Affinity for the cells (in words)” value with EGFR [5] is given as “micromolar range”.

Take “Cy5.5-(AEEA)2-YHWYGYTPQNVI-amide [Compound 3]”: the “Affinity for the cells (in words)” value with EGFR [5] is “micromolar range”.

Consider YHWYGYTPQNVI [GE11], for which the “Binding affinity for EGFR (in words)” value on EGFR [6] is listed as “nanomolar range”.

As for “Cy5.5-(AEEA)3-YHWYGYTPQNVI-amide [Compound 4]”, the “Affinity for the cells (in words)” value with EGFR [5] is listed as “micromolar range”.
